According to patent US20160200782A1:

Tests used:
Experiment in all cases: cell-based or functional assay
[1] = molecular target: JNK2α2(h) (human), P45984
CK1δ(h) (human), P48730 = molecular target: CK1δ(h) (human), P48730
[2] = molecular target: CaMKIIδ(h) (human), Q13557
PKCβI(h) (human), P05771 = molecular target: PKCβI(h) (human), P05771
MKK7β(h) (human), O14733 = molecular target: MKK7β(h) (human), O14733
PKG1α(h) (human), Q13976 = molecular target: PKG1α(h) (human), Q13976
[3] = molecular target: CaMKIδ(h) (human), Q8IU85
CaMKIδ(h) (human), Q8IU85, sequence (Q8IU85 whole entry, stated change not applied): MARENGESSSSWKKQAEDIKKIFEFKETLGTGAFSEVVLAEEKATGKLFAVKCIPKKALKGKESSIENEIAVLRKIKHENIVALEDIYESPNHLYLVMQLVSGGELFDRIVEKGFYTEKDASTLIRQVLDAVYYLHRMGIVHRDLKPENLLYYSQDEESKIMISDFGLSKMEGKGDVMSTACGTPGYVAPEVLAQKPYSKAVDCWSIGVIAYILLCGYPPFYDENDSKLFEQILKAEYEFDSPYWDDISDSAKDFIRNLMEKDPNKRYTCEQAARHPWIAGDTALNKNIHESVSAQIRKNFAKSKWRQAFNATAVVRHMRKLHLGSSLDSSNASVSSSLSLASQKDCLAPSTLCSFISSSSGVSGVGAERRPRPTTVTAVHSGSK

PKCβI(h) (human), P05771, sequence (P05771 whole entry): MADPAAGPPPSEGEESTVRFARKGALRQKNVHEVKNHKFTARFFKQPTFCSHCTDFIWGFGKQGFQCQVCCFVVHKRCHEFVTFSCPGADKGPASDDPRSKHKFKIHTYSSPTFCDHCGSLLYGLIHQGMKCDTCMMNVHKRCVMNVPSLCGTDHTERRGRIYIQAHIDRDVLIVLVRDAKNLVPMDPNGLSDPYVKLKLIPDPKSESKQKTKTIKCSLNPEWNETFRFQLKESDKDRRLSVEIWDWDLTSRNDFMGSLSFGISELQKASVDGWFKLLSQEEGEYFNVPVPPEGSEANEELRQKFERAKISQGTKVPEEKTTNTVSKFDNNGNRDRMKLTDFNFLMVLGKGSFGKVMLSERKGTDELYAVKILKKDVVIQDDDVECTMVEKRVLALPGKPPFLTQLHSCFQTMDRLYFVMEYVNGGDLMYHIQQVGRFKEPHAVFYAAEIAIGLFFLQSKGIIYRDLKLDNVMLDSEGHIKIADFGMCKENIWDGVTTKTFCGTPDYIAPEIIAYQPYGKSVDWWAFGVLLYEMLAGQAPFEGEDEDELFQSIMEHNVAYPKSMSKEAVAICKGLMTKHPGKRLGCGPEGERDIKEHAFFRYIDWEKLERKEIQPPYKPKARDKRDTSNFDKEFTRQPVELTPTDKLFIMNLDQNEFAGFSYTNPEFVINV
MKK7β(h) (human), O14733, sequence (O14733 whole entry): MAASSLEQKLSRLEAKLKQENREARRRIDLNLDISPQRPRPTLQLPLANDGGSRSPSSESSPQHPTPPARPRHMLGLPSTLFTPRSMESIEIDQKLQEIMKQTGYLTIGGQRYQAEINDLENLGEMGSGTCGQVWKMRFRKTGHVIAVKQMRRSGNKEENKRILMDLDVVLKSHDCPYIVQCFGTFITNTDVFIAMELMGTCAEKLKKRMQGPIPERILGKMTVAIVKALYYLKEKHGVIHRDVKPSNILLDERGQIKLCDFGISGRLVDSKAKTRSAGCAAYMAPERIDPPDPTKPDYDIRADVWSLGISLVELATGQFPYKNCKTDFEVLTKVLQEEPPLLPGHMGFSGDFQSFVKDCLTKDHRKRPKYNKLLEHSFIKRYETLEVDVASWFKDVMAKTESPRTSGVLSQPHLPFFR
CaMKIIδ(h) (human), Q13557, sequence (Q13557 whole entry, stated change not applied): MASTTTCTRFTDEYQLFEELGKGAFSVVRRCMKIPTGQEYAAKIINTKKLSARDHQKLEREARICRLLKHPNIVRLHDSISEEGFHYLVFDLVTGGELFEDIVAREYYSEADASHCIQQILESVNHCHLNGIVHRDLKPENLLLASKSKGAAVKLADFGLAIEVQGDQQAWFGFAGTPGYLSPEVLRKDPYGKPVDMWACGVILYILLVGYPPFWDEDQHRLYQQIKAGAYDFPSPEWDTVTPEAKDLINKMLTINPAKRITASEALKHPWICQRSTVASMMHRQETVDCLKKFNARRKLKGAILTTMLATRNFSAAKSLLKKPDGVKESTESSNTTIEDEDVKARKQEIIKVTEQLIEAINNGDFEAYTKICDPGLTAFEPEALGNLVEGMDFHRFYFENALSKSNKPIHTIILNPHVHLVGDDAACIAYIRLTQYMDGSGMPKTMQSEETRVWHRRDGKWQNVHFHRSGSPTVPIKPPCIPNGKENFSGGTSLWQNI
CK1δ(h) (human), P48730, sequence (P48730 1-294, stated change not applied): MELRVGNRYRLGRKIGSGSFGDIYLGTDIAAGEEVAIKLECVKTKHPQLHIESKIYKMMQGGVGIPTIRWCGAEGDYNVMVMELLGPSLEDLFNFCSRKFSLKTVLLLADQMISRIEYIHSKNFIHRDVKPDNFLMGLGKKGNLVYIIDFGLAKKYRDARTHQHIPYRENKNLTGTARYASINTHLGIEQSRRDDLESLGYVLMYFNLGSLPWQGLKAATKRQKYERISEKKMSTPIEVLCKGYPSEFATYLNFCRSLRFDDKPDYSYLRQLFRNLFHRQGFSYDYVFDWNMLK
PKG1α(h) (human), Q13976, sequence (Q13976 whole entry): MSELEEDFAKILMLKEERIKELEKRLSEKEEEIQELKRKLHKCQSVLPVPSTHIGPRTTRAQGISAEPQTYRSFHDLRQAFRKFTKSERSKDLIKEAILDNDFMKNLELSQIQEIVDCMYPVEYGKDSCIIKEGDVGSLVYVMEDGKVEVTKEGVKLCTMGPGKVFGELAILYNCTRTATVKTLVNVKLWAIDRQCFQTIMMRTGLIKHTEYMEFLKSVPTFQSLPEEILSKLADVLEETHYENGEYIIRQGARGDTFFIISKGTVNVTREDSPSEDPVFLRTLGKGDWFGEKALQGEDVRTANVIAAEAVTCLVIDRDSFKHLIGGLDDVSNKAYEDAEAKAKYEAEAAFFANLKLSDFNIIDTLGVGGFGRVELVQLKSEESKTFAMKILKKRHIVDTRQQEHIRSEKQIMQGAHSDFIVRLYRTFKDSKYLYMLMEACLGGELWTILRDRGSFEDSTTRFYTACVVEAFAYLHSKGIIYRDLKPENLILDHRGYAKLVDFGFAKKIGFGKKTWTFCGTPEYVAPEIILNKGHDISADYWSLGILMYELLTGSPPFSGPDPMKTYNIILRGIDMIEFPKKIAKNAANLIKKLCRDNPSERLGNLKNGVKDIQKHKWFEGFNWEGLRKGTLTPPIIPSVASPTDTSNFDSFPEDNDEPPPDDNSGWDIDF

Row | % activity [1] [%] | % activity (CK1δ(h) (human), P48730) [%] | % activity [2] [%] | % activity (PKCβI(h) (human), P05771) [%] | % activity (MKK7β(h) (human), O14733) [%] | % activity (PKG1α(h) (human), Q13976) [%] | % activity [3] [%] | Binder
1 | 98 | 92 | 1 | 78 | 100 | 64 | 10 | FAKLAARLYRKALARQLGVAA [MMI-0300]
2 | 96 | 93 | 2 | 78 | 94 | 58 | 17 | KAFAKLAARLYRKALARQLGVAA [MMI-0400]
